Drawing on article PMC3027643, this text covers stoichiometry N for 1 substance.

The experiment deals with mISCU/mNFS1/mISD11 complex (mouse) (UniProt Q9D7P6). Put plainly: native MS; ESI native mass spectrometry of the quaternary complexes after gel filtration, 50 mM ammonium acetate; masses of the GST-mFXN and the mFXN-HIS complex compared. Background: SEC sorts molecules by how far they enter the pores of the column.

For orientation: stoichiometry N means a count of units in the complex or per binding partner.

Chain of UniProt Q9D7P6 (Q9D7P6 36-168, chain 1 of 3): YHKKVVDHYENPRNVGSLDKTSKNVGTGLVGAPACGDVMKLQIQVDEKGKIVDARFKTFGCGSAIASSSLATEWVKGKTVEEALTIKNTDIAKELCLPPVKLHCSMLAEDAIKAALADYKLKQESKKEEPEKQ
Chain of UniProt Q9D7P6 (Q9Z1J3 18-459, chain 2 of 3, further chain): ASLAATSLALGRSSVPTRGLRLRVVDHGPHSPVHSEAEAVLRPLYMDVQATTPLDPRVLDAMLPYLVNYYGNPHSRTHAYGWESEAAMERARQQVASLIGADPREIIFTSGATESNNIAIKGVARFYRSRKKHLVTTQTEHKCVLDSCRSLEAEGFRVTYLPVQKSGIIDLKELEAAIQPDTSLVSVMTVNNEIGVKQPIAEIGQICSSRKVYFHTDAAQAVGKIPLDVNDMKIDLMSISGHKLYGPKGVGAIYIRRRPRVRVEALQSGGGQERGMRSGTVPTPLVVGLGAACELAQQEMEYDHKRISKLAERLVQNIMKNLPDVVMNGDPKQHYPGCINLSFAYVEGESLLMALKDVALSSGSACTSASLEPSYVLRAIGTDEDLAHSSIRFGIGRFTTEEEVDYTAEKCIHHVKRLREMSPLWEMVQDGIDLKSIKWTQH
Chain of UniProt Q9D7P6 (Q8K215 whole entry, chain 3 of 3, further chain): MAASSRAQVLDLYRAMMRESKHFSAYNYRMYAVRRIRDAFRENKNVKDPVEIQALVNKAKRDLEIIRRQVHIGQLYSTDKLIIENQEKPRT

Take mFXN-HIS (natural protein): the stoichiometry N was 2.
